B1: Polypeptide No. 209 (scFv, V domains shown)
VH: EVQLLESGGGLVQPGGSLRLSCAASGFAFSSYVLHWVRQAPGKGLEWVAGIWVDGHNKDYADSVKGRFTISRDNSKNTLYLQMNSLRAEDTAVYYCAREFGAAGSFQHWGQGTLVTVSS
VL: DIQMTQSPSSLSASVGDRVTITCRASQSISTWLAWYQQKPGKAPKLLIYDASKLETGVPSRFSGSGSGTDFTLTISSLQPEDFATYYCQQSYTTPYTFGQGTKVEIKR
B2: Polypeptide No. 226 (scFv, V domains shown)
VH: QVQLVQSGAEVKKPGASVKVSCKASGYTFTGYYMHWVRQAPGQGLEWMGIIDPSGGSTSYAQKFQGRVTMTRDTSTSTVYMELSSLRSEDTAVYYCARDRSLLWSGVGGMDVWGQGTTVTVSS
VL: B1 VL with S28G, T31N, W32Y, D50G, K53N, E55Q, T56S, T93G, V104L
B3: Polypeptide No. 227 (scFv, V domains shown)
VH: QVQLVQSGAEVKKPGSSVKVSCKASGYTLNELFMHWVRQAPGQGLEWVGGIIPMSGTTFYAQTFQGRVTITADESTSTAYMELSSLRSEDTAVYYCAKGVRQYSYGRYYYGMDVWGQGTLVTVSS
VL: DIQMTQSPSSLSASVGDRVTITCRASQSVSSYLNWYQQKPGKAPKLLIYGASNLQSGVPSRFSGSGSGTDFTLTISSLQPEDFATYYCQQSYTTPWTFGQGTRLEIKR
B4: Polypeptide No. 211 (scFv, V domains shown)
VH: EVQLLESGGGLVQPGGSLRLSCAASGFTFSNHYMSWVRQAPGKGLEWVSAIGAGGGTYYADSVKGRFTISRDNSKNTLYLQMNSLRAEDTAVYYCAKSSGYSYGRRPFDYWGQGTLVTVSS
VL: DIQMTQSPSSLSASVGDRVTITCRASQGISNNLAWYQQKPGKAPKLLIYAASTLHNGVPSRFSGSGSGTDFTLTISSLQPEDFATYYCQQYGRSPKTFGQGTKVEIKR
B5: Polypeptide No. 201 (scFv, V domains shown)
VH: QVQLVQSGAEVKKPGASVKVSCKASGGTFSSDGISWVRQAPGQGLEWMGWISAYHGHTNYAQKFQGRVTMTRDTSTSTVYMELSSLRSEDTAVYYCARGGKHSGSHRSYYYGMDVWGQGTTVTVSS
VL: DIQMTQSPSSLSASVGDRVTITCRASHNIGNKLAWYQQKPGKAPKLLIYGATTLQSGVPSRFSGSGSGTDFTLTISSLQPEDFATYYCQQANSFPRTFGPGTKVDIKR
B6: Polypeptide No. 232 (scFv, V domains shown)
VH: QVQLVQSGAEVKKPGASVKVSCKASGYTFTSYGIHWVRQAPGQGLEWMGGIIPIFGTASYAQKFQGRVTMTRDTSTSTVYMELSSLRSEDTAVYYCTRSNGIAAAGTHWYFDLWGRGTLVTVSS
VL: DIQMTQSPSSLSASVGDRVTITCRASQNIANSLNWYQQKPGKAPKLLIYAASSLQSGVPSRFSGSGSGTDFTLTISSLQPEDFATYYCQQYSSYPPTFGPGTKVDIKR
B7: Polypeptide No. 230 (scFv, V domains shown)
VH: QVQLVQSGAEVKKPGSSVKVSCKASGGTFSSNAINWVRQAPGQGLEWMGGIIPLFGTTNYAQKFQGRVTITADESTSTAYMELSSLRSEDTAVYYCARVLSGWYGTYYFDYWGQGTLVTVSS
VL: EIVMTQSPATLSVSPGERATLSCRASQSVSADYIAWYQQKPGQAPRLLIYDVSTRASGIPARFSGSGSGTEFTLTISSLQSEDFAVYYCQHYGSSQVTFGQGTKVEIKR
B8: Polypeptide No. 245 (scFv, V domains shown)
VH: QVQLVQSGAEVKKPGSSVKVSCKASGYTFTGFYIHWVRQAPGQGLEWMGGVIPFFSRTIYAQKFQGRVTITADESTSTAYMELSSLRSEDTAVYYCAYGANGHLYGMDAWGQGTTVTVSS
VL: B7 VL with A31S, D32S, I34L, D51G, V52A, S57T, H91Q, G93S, Q96P, V97L
B9: Polypeptide No. 263 (scFv, V domains shown)
VH: QVQLVQSGAEVKKPGSSVKVSCKASGGTFSSYAISWVRQAPGQGLEWMGGIIPIVGVANYAQKLQGRVTITADESTSTAYMELSSLRSEDTAVYYCAKDIGGYPSDAFDIWGQGTTVTVSS
VL: B7 VL with A31S, D32S, I34L, S57T, H91Q, Q96P, V97I
B10: Polypeptide No. 286 (scFv, V domains shown)
VH: QVQLVQSGAEVKKPGASVKVSCKASGYTFTSYGISWVRQAPGQGLEWMGWISPNSGVTNYAQKFQGRVTMTRDTSTSTVYMELSSLRSEDTAVYYCVSDDYGAFDYWGQGTLVTVSS
VL: B7 VL with A31S, D32S, I34L, H91Q, G93N, S94N, S95W, Q96P, V97Y, V105L
B11: Polypeptide No. 225 (scFv, V domains shown)
VH: QVQLVQSGAEVKKPGSSVKVSCKASGYTLTELSIHWVRQAPGQGLEWMGGIVPMSGTASYAQKFQGRVTITADESTSTAYMELSSLRSEDTAVYYCARRRDGYNSWGQGTLVTVSS
VL: DIVMTQSPDSLAVSLGERATINCKSSQSLLYGSKNYISWYQQKPGQPPKLLIYSSSTRESGVPDRFSGSGSGTDFTLTISSLQAEDVAVYYCQQYYTTPYTFGQGTKVEIKR
B12: Polypeptide No. 205 (scFv, V domains shown)
VH: QVQLVQSGAEVKKPGSSVKVSCKASGGSFISHTFSWVRQAPGQGLEWMGGIIPISGTANYAQKFQGRVTITADESTSTAYMELSSLRSEDTAVYYCAKGRGQLVGGYFQHWGQGTLVTVSS
VL: DIVMTQSPLSLPVTPGEPASISCRSSQSLLHSNGYNYLDWYLQKPGQSPQLLIYAASSLQSGVPDRFSGSGSGTDFTLKISRVEAEDVGVYYCMQALQTPLTFGQGTRLEIKR
B13: Polypeptide No. 250 (scFv, V domains shown)
VH: QVQLVQSGAEVKKPGSSVKVSCKASGYTLTSFAMHWVRQAPGQGLEWMGRIIPMSGTANYAQKFQGRVTITADESTSTAYMELSSLRSEDTAVYYCASTSPDQYYYGMDVWGQGTTVTVSS
VL: EIVMTQSPATLSVSPGERATLSCRASQSVGSSSLAWYQQKPGQAPRLLIYGASTRATGIPARFSGSGSGTEFTLTISSLQSEDFAVYYCQQYGSSPYTFGQGTKVEIKR
B14: Polypeptide No. 268 (scFv, V domains shown)
VH: QVQLVQSGAEVKKPGSSVKVSCKASGGTFSTYALSWVRQAPGQGLEWMGGVIPVFGTTDYAHKFQGRVTITADESTSTAYMELSSLRSEDTAVYYCASMIIFGAGGWDAYYFQEWGQGTLVTVSS
VL: B13 VL with G30N, S31N, S32N, S33Q, G51D, A52T, T54S, G93D, S94T
B15: Polypeptide No. 281 (scFv, V domains shown)
VH: QVQLVQSGAEVKKPGASVKVSCKASGYTFNSYGISWVRQAPGQGLEWMGIINPTGGSTTYAQKFQGRVTMTRDTSTSTVYMELSSLRSEDTAVYYCAKDPFVMDVWGQGTTVTVSS
VL: B13 VL with G30S, S33Y, G51D, T54A, T57A, G93Y, S95T, V105L
B16: Polypeptide No. 224 (scFv, V domains shown)
VH: QVQLVQSGAEVKKPGSSVKVSCKASGYTFTGYYMHWVRQAPGQGLEWMGVINPIYGTANYALKFQGRVTITADESTSTAYMELSSLRSEDTAVYYCAKAISSGWSNDAFDIWGQGTMVTVSS
VL: EIVMTQSPATLSVSPGERATLSCRASQSVSSDFLAWYQQKPGQAPRLLIYDTSSRASGIPARFSGSGSGTEFTLTISSLQSEDFAVYYCQQYAGPPTFGQGTRLEIKR
B17: Polypeptide No. 236 (scFv, V domains shown)
VH: QVQLVQSGAEVKKPGSSVKVSCKASGGTFSSYAISWVRQAPGQGLEWMGGIIPILGIANYAQKFQGRVTITADESTSTAYMELSSLRSEDTAVYYCAHVDGYGMDVWGQGTTVTVSS
VL: EIVMTQSPATLSVSPGERATLSCRASQSVSSNLAWYQQKPGQAPRLLIYDVSSRATGIPARFSGSGSGTEFTLTISSLQSEDFAVYYCQQLDAYPLTFGGGTKVEIKR
B18: Polypeptide No. 276 (scFv, V domains shown)
VH: QVQLVQSGAEVKKPGSSVKVSCKASGYTFTRFNIHWVRQAPGQGLEWMGWLNPFTGNTGYARKFQGRVTITADESTSTAYMELSSLRSEDTAVYYCASSSSWYGWFDPWGQGTLVTVSS
VL: B17 VL with N32Y, V51T, S53T, L91Y, D92H, A93S, Y94S, L96W, G100Q
B19: Polypeptide No. 282 (scFv, V domains shown)
VH: QVQLVQSGAEVKKPGASVKVSCKASGGTFSSYAISWVRQAPGQGLEWMGWMNPNSGDTGYAQKFQGRVTMTRDTSTSTVYMELSSLRSEDTAVYYCARDFEGGGWFDPWGQGTLVTVSS
VL: B17 VL with Q27R, V29I, S31D, N32Y, V51A, L91Y, D92Y, A93T, Y94T, G100Q
B20: Polypeptide No. 220 (scFv, V domains shown)
VH: QVQLVQSGAEVKKPGASVKVSCKASGYTFTGYYMYWVRQAPGQGLEWMGIINPRGGITSYAQRFQGRVTMTRDTSTSTVYMELSSLRSEDTAVYYCARGSTSSGWPNGDMDVWGKGTTVTVSS
VL: B4 VL with S30R, N32D, A34G, T53S, H55Q, N56S, Y91A, G92N, S94F, K96P

Substitutions are numbered along the chain they refer to.

The values that follow come from US20240101668A1.

For the first assay, the target named is huFLT3-T227 stably expressed on Ramos cells (human) (UniProt P36888). Briefly: FACS on cells.
Turning to B1, the FACS geometric mean fold change over Jurkat parental is less than 2 fold.

With B2, the FACS geometric mean fold change over Jurkat parental is less than 2 fold.

Consider B3, for which the FACS geometric mean fold change over Jurkat parental is less than 2 fold.

Take B4: the FACS geometric mean fold change over Jurkat parental was less than 2 fold.

As to B5, the FACS geometric mean fold change over Jurkat parental was less than 2 fold.

For B6, the FACS geometric mean fold change over Jurkat parental is less than 2 fold.

Turning to B7, the FACS geometric mean fold change over Jurkat parental is less than 2 fold.

Consider B8, for which the FACS geometric mean fold change over Jurkat parental was less than 2 fold.

B9: the FACS geometric mean fold change over Jurkat parental is less than 2 fold.

B10: the FACS geometric mean fold change over Jurkat parental was less than 2 fold.

Take B11: the FACS geometric mean fold change over Jurkat parental was less than 2 fold.

B12: the FACS geometric mean fold change over Jurkat parental is less than 2 fold.

With B13, the FACS geometric mean fold change over Jurkat parental was less than 2 fold.

On to B14, for which the FACS geometric mean fold change over Jurkat parental is less than 2 fold.

Regarding B15, the FACS geometric mean fold change over Jurkat parental was less than 2 fold.

B16: the FACS geometric mean fold change over Jurkat parental was less than 2 fold.

Turning to B17, the FACS geometric mean fold change over Jurkat parental was less than 2 fold.

Take B18: the FACS geometric mean fold change over Jurkat parental is less than 2 fold.

Regarding B19, the FACS geometric mean fold change over Jurkat parental was less than 2 fold.

A further assay addresses huFLT3-M227 stably expressed on Ramos cells (human) (UniProt P36888). Briefly: FACS on cells.
With B1, the FACS geometric mean fold change over Jurkat parental is less than 2 fold.

For the molecule B3, the FACS geometric mean fold change over Jurkat parental is less than 2 fold.

B4: the FACS geometric mean fold change over Jurkat parental is less than 2 fold.

With B20, the FACS geometric mean fold change over Jurkat parental was less than 2 fold.

For B5, the FACS geometric mean fold change over Jurkat parental was less than 2 fold.

For B6, the FACS geometric mean fold change over Jurkat parental was less than 2 fold.

With B7, the FACS geometric mean fold change over Jurkat parental is less than 2 fold.

Turning to B12, the FACS geometric mean fold change over Jurkat parental is less than 2 fold.

Turning to B17, the FACS geometric mean fold change over Jurkat parental was less than 2 fold.
